Reference: patent US20070048315A1 (SCHERING, published 2007)
Residue numbers refer to the chain shown, from its start. Values joined by “and” are separate entries in the source; they are usually repeats but may differ in a detail not shown here. Equal values may be shown once. Each block holds one binder with its values, some of them ahead of it.

Columns and labels:
Test in all cases: cell-based or functional assay
[1] = target: T1, non-tagged, non-linked native human IL-23p19/p40 coexpressed in SF9 cells (eBioscience CAT No. 34-8239) (human, UniProt P29460 23-328)
T1 sequence 1: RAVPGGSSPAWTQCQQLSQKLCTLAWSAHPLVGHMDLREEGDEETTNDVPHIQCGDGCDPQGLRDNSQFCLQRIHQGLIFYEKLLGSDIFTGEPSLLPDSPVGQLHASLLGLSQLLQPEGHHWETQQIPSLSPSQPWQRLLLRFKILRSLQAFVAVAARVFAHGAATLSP
T1 sequence 2: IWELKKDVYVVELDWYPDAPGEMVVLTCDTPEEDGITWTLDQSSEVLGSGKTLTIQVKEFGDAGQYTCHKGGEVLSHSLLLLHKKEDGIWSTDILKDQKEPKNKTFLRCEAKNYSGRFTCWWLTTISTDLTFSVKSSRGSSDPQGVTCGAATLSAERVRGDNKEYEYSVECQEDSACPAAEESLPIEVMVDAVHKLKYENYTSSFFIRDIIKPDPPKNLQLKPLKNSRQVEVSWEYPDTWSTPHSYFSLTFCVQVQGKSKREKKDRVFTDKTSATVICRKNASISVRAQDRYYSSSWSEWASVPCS

[2] = target: "Elastikine" human IL-23 (single chain FLAG-tag peptide:GLU-tag peptide:human p40:elasti-linker:human p19, … (human, UniProt P29460 23-328))
[3] = target: T2, "Non-linked" human IL-23 (human p40 coexpressed in 293T cells with human p19:FLAG-tag peptide) (human, UniProt P29460 23-328)
T2 sequence 1: T1 sequence 1
T2 sequence 2: T1 sequence 2

[4] = target: "Elastikine" human IL-23 (single chain FLAG-tag peptide:GLU-tag peptide:human p40:elasti-linker:human p19, … (human, UniProt P29460 23-328)); remark: listed apart in the source

IC50 for blocking of Ba/F3 cell proliferation [1]: 3200 nM
IC50 for blocking of Ba/F3 cell proliferation [4]: 27 nM
IC50 for blocking of Ba/F3 cell proliferation [3]: 4000 nM
B5: humanized anti-human IL-23p19 antibody hum6H12 (antibody, human IgG1, kappa, V domains shown)
VH: QVQLVQSGAEVKKPGASVKVSCKASGYTFNRYLIHWVRQAPGQGLEWMGYINPNNAGTNYNEKFKGRVTMTTDTSTSTAYMELRSLRSDDTAVYYCARNWDQAYWGQGTLVTVSS
VL: DIQMTQSPSSLSASVGDRVTITCRASQSISDYLHWYQQKPGKAPKLLIYYTSQSISGVPSRFSGSGSGTDFTLTISSLQPEDFATYYCQNGHSFPFTFGQGTKVEIKR

IC50 for blocking of Ba/F3 cell proliferation [2]: 22 nM and 18 nM
IC50 for blocking of Ba/F3 cell proliferation [3]: 3000 nM
B6: mouse anti-human IL-23p19 antibody 7G10 (antibody, V domains shown)
VH: EVQLQQSGPELVKPGASVKMSCKASGYTFTSNVMHWVKQKPGQGLEWIGYINPYNDGTKYNEKFKGKATLTSDKSSSTAYMELSSLTSEDSAVYYCARNWDVAYWGQGTLVTVSA
VL: DIVMTQSPATLSVTPGDRVSLSCRASQSISDYLHWYRQKSHESPRLLIKYASQSISGIPSRFSGSGSGSDFTLSINSVEPEDVGVYYCQNGHSFPFTFGSGTKLEIKR

IC50 for blocking of Ba/F3 cell proliferation [1]: 1300 nM and 500 nM
IC50 for blocking of Ba/F3 cell proliferation [2]: 11 nM and 9 nM
IC50 for blocking of Ba/F3 cell proliferation [3]: 1500 nM
B7: mouse anti-human IL-23p19 antibody 6H12 (antibody, V domains shown)
VH: B6 VH with Q3H, T30N, S31R, N32Y, V33L, M34I, Y54N, K59N, R98A, V102Q
VL: B6 VL with R37Q, A51T

IC50 for blocking of Ba/F3 cell proliferation [1]: 57 nM
IC50 for blocking of Ba/F3 cell proliferation [2]: 4 nM and 3 nM
IC50 for blocking of Ba/F3 cell proliferation [3]: 193 nM
B8: mouse anti-human IL-23p19 antibody 33B12 (antibody, V domains shown)
VH: QVQLQQSGAELARPGASVKLSCKASGYTFTSYSLKWVKQRTGQGLEWIGEIHPRSGNTHYNEKFKGKATLTADKSSSTAYMDLRSLTSEDSAVYFCATNWDLGYWGQGTTITVSS
VL: B6 VL with M4L, Y36F, R37Q, K39R

More lines, now with the values behind:

B1: mouse anti-human IL-23p19 antibody 3D7 (antibody, V domains shown)
VH: QVQLQQSGPELVKPGASVKISCKASGYSFTSYYIHWVKQRPGQGLEWIGWIFPGSGNTKYNEKFKGKATLTADTSSTTAYMQLSSLTSEASAVYFCAREGLHYFGLYAMDYWGHGTSVTVSS
VL: DIQMTQTTSSLSASLGDRVTISCSASQGISNYLNWFQQKPDGTVKLLIYYTSSLHSGVPSRFSGSGSGTDYSLTISNLEPEDIATYYCQQYSKLPYTFGGGTKLEIKR
IC50 for blocking of Ba/F3 cell proliferation [1]: 2 nM
IC50 for blocking of Ba/F3 cell proliferation [2]: 3 nM
IC50 for blocking of Ba/F3 cell proliferation [3]: 37 nM

B2: mouse anti-human IL-23p19 antibody 39G2 (antibody, V domains shown)
VH: QVQLQQPGAELVRPGASVKLSCKASGYSFTSSWMNWVKQRPGQGLEWIGMIHPSDSETRTNQKFKDKATLTVDKSSSTAYMQLSSPTSEDSAVYYCARGMITAPTVYWGQGTLVTVSA
VL: DIVLTQSPASLAVSLGQRATISCRASKSVSTSAYSYFHWYQQKPGQPPKLLIYLASNLESGVPARFSGSGSGTDFTLNIHPVEEEDAATYYCQHSRELPWTFGGGTKLEITP
IC50 for blocking of Ba/F3 cell proliferation [1]: 11 nM
IC50 for blocking of Ba/F3 cell proliferation [2]: 9 nM and 5 nM
IC50 for blocking of Ba/F3 cell proliferation [3]: 67 nM

B3: mouse anti-human IL-23p19 antibody 35F12 (antibody, V domains shown)
VH: B2 VH with V12M, K19R, S31T, T60L, K63N, K74R, S84N, T105S
VL: B2 VL with E85G, P112R
IC50 for blocking of Ba/F3 cell proliferation [1]: 12 nM
IC50 for blocking of Ba/F3 cell proliferation [2]: 15 nM and 5 nM
IC50 for blocking of Ba/F3 cell proliferation [3]: 73 nM

B4: humanized anti-human IL-23p19 antibody hum7G10 (antibody, human IgG1, kappa, V domains shown)
VH: B5 VH with N30T, R31S, Y32N, L33V, I34M, N54Y, A56D, N59K, Q102V
VL: B5 VL with T51A
IC50 for blocking of Ba/F3 cell proliferation [1]: 7800 nM
IC50 for blocking of Ba/F3 cell proliferation [4]: 29 nM
IC50 for blocking of Ba/F3 cell proliferation [3]: 10000 nM

B9: mouse anti-human IL-23p19 antibody 13B5 (antibody, V domains shown)
VH: EVQLQQSGPELVKPGASVKMSCKASGYTFTRYLMHWVKQKPGQGLEWIGYINPYNDGTNYNEKFKGKATLTSDKSSSTAYMELSSLTSEDSAVYYCARNWDVGGYWGQGTTLTVSS
VL: B6 VL with R37Q
IC50 for blocking of Ba/F3 cell proliferation [1]: 31 nM
IC50 for blocking of Ba/F3 cell proliferation [2]: 7 nM and 5 nM
IC50 for blocking of Ba/F3 cell proliferation [3]: 113 nM
